Measurements reported in PMC4164784, “4E-BPs require non-canonical 4E-binding motifs and a lateral surface of eIF4E to repress translation” (Nature Communications, 2014).
No end group written: not given here.

Legend:
[1] = biological target: T1, Dm eIF4E II-AA mutant (I96A, I112A; residues 69–248) (Drosophila melanogaster, UniProt P48598, I107A/I123A); experiment: ITC, binding to eIF4E II-AA mutant (residues 69–248); conditions: for affinity for eIF4E II-AA mutant relative to WT (in words): bipartite peptides (C+NC) or eIF4G, lateral-surface mutant vs WT
T1 construct: The solution of eIF4E (residues 69–248, WT or mutant: 1–20 μM) in the calorimetric cell; His6 (N, cleaved yes); made in house; host or cells: E. coli BL21 Star (DE3)
Method: Unless indicated otherwise, all the proteins were expressed in E. coli BL21 Star (DE3) cells (Invitrogen) that were grown in LB medium overnight at 20 °C. The lysis buffers were supplemented with DNaseI (5 μg ml^−1), lysozyme (1 mg ml^−1) and protease inhibitor cocktail (Roche). The truncated His6-eIF4E (residues 69–248) that was used in the ITC experiments and in Figs 2c and 5b was purified in lysis buffer containing 50 mM HEPES (pH 7.2), 300 mM NaCl, 20 mM imidazole and 2 mM β-mercaptoethanol using Ni^2+-affinity chromatography (HisTrap HP 5 ml, GE Healthcare) and eluted with a gradient of 20–500 mM imidazole. After the cleavage of the His6-tag with HRV3C protease (homemade), the protein was further purified using a heparin column (HiTrap Heparin HP 5 ml, GE Healthcare), followed by size exclusion chromatography (Superdex 75 16/60, GE Healthcare) in 20 mM Na-phosphate (pH 7.0), 300 mM NaCl and 2 mM dithiothreitol (DTT).
For the ITC measurements and the competition assays shown in Figs 4 and 5d–g, the 4E-BP peptides corresponding to the canonical (C) motifs, the combined (C+NC) motifs or L+NC were expressed with an HRV3C cleavable N-terminal MBP-tag and a non-cleavable C-terminal GB1 domain. The cells were lysed by sonication in lysis buffer containing 50 mM HEPES (pH 7.2), 300 mM NaCl and 2 mM DTT. The proteins were purified from the cleared lysates using amylose resin (New England Biolabs) followed by the cleavage of the MBP tag with HRV3C protease overnight at 4 °C. The proteins were further purified by size exclusion chromatography (Superdex 75 16/60, GE Healthcare) in 20 mM Na-phosphate (pH 7.0), 300 mM NaCl and 2 mM DTT. For the eIF4G fragment (residues 578–650) the MBP was removed after cleavage with TEV protease through an additional anion exchange chromatography (HiTrap Q HP 5 ml, GE Healthcare) before the final gel filtration.
The ITC experiments were performed using a VP-ITC microcalorimeter (MicroCal) at 20 °C. The solution of eIF4E (residues 69–248, WT or mutant: 1–20 μM) in the calorimetric cell was titrated with tenfold concentrated solutions of GB1-stabilized peptides corresponding to 4E-BPs C+NC (10 μM), C (50 μM), L+NC (100 μM CUP, 200 μM Thor and 4E-T) or eIF4G (residues 578–650, 20 μM) that were dissolved in the same buffer (20 mM Na-phosphate (pH 7.0) and 150 mM NaCl). The titration experiments consisted of an initial injection of 2 μl followed by 28 injections of 10 μl at an interval of 240 s. Each binding experiment was repeated twice. The thermodynamic parameters were estimated using a one-site binding model (Origin version 7.0), whereby the datapoint of the first injection was removed for the analysis.
mutant (residues 69-248) and CUP (a), Thor (b), 4E-T (c) and eIF4G (d) peptides. The
measurements were performed as described in Supplementary Fig. 3. The solutions
contained the 4E-BP C+NC peptides (10 µM) and 20 µM for the eIF4G peptide. The eIF4E
II-AA mutant concentration in the calorimetric cell was 5 µM.

[2] = system: eIF4E (II-AA mutant)–eIF4G complex; experiment: Competition assay, displacement of GST-eIF4G from preassembled eIF4E (II-AA)–eIF4G complexes; format: biochemical, Drosophila melanogaster; conditions: Fig. 4; 2 μM complex, GB1-fused competitor, 20 min at 4 °C, Strep-Tactin pull down; n=2
Method: To obtain the preassembled eIF4E–eIF4G complexes used in Figs 4 and 5d–g, full-length eIF4E (WT or the II-AA mutant) containing an N-terminal SNH-tag was coexpressed with an N-terminal GST-tagged eIF4G (residues 578–650). The cells were lysed by sonication in lysis buffer containing 50 mM HEPES (pH 7.2), 300 mM NaCl and 2 mM DTT. The complexes were purified from the cleared lysates using Protino Glutathione Agarose 4B beads (Machery-Nagel). The complex was further purified using a heparin column (HiTrap Heparin HP 5 ml, GE Healthcare) and a final size exclusion chromatography (Superdex 200 16/60, GE Healtcare) in 20 mM HEPES (pH 7.2), 200 mM NaCl and 2 mM DTT.
For the titration experiments shown in Fig. 4, 2 μM of purified complexes containing SHN-eIF4E (WT or II-AA mutant) bound to GST-eIF4G (residues 578–650) were incubated with increasing amounts (2–20 μM) of purified competitor proteins for 20 min at 4 °C. The eIF4E-bound proteins were recovered via Strep-Tactin Sepharose pull down and eluted with lysis buffer containing 2.5 mM desthiobiotin. The proteins were analyzed by 15% SDS–PAGE followed by staining with Coomassie blue staining. […]
presence of MBP (negative control), increasing amounts of 4E-BP peptides or eIF4G-GB1 in […]
The amounts of GST-eIF4G bound to eIF4E in each experimental condition were determined using the Image J software after Coomassie blue staining. To rule out the possibility that changes in the amount of GST-eIF4G bound to eIF4E resulted from variations in the loading volume, all values were normalized to the levels of SHN-eIF4E present in each condition. These values were set to 100 in the presence of MBP.
Each experiment was repeated at least twice. (e,f) Quantification of the experiments shown in Fig. 5d–g. The amounts of GST-eIF4G remaining bound to eIF4E in the presence of MBP, 4E-BP peptides or eIF4G-GB1 were normalized to those of eIF4E and set to 100 in the presence of MBP. […]
micrographs of fixed S2 cells expressing HA-4E-T and GFP-Tral. The localization of HA-4E-T was determined by indirect immunofluorescence using an anti-HA antibody. […]

[3] = eIF4E II-AA (69–248), 20 °C, pH 7.0

T1 sequence (P48598 80-259 I107A/I123A): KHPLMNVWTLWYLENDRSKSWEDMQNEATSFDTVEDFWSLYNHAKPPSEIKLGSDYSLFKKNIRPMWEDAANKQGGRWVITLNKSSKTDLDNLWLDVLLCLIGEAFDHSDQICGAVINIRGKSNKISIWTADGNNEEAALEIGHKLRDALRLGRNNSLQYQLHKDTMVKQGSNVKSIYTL

Substance	affinity for eIF4E II-AA mutant relative to WT (in words) [1]	TΔS [1, 3] [kcal/mol]	ΔG [1, 3] [kcal/mol]	displacement of eIF4G from eIF4E II-AA–eIF4G complex (in words) [2]	Kd ([1]; VP-ITC, 20 °C, 20 mM Na-phosphate (pH 7.0), 150 mM NaCl, GB1-fused C+NC peptides (10 μM) or eIF4G (20 μM) into eIF4E II-AA 5 μM, one-site model, each experiment repeated twice) [nM]	ΔH [1, 3] [kcal/mol]
4E-T C+NC: 4E-T residues 9–44, eIF4E-binding region short, C-terminal GB1	not significantly affected	2.16	-10.80	did not efficiently displace eIF4G		
CUP C+NC: CUP residues 325–376, eIF4E-binding region short, C-terminal GB1 (KSYTRSRLMDIRNGMFNALMHRSKESFVMPRIATCDDIELEGRLRRMNIWRT-GB1; UniProt Q9VMA3 325-376, looked up, fragment)	reduced by one and two orders of magnitude, respectively	8.79	-9.84	did not efficiently displace eIF4G	50	-18.6 ± 0.7
Thor C+NC: Thor residues 50–83, eIF4E-binding region short, C-terminal GB1 (TKLIYERAFMKNLRGSPLSQTPPSNVPSCLLRGT-GB1; UniProt Q9XZ56 50-83, looked up, fragment)	reduced by one and two orders of magnitude, respectively	-0.91	-8.46	did not efficiently displace eIF4G		
